Measured values reported in patent publication US10059950B2, “Compositions comprising an internalizing nucleic acid molecule, and their methods of use” (B3 BIO, INC., priority 2012, dated 2018).
In the oligonucleotide strings, read from the 5' end, every base follows the letter of its sugar. An asterisk marks phosphorothioate; unmarked linkages are phosphodiester. Other units and linkages are bracketed, terminal groups are in braces. A string of capitals states the bases alone. r = 2'-OH (RNA); f = 2'-fluoro

Columns and labels:
[1] = test system: DU145 human prostate cancer, metastatic; assay: Flow cytometric binding and internalization assay, DU145; assay type: cell-based; conditions: DU145, malignant
Method: (§1) In illustrating a screening process for internalization, from clones selected for further analysis from the selection process, a flow cytometric-based assay for binding and/or internalization was utilized. Typically, the assay was performed by incubating 200 nM of each clone with 5×10^5 target cells in 100 ul PBS containing 0.5% bovine serum albumin (BSA) in a 13 mm tube for 2 hours @ 37° C. A first portion of the cells was then treated with RNAse to remove any of the clone remaining bound to the surface of the cells, so as to allow detection and quantitation of internalized clone (i.e., measuring internalization). In parallel, a second portion of the cells was treated with PBS containing 0.5% BSA (lacking added RNase activity to enzymatically cleave […]), so as to allow detection and quantitation of clone remaining bound to the cell surface, as well as internalized clone (i.e., measuring binding and internalization). […] Additionally, fluorescence of unstained cells was measured, as a control, to quantitate any background fluorescent properties of the cells themselves as encountered in analyses by flow cytometry (“Unstained”), as opposed to fluorescent signal mediated by the RNA molecules further modified to include Alexa 647. […] The units of fluorescence in Table 5 represent mean fluorescence (“Mean”). […]

[2] = test system: PrEC human primary prostate epithelial cells; assay: Flow cytometric binding and internalization assay, PrEC; assay type: cell-based; conditions: nonmalignant
Method: as §1

[3] = test system: HCC1143 human, triple negative, breast carcinoma; assay: Flow cytometric binding and internalization assay, HCC1143; assay type: cell-based; conditions: HCC1143, malignant
Method: as §1

[4] = test system: MCF7 human breast adenocarcinoma; assay: Flow cytometric binding and internalization assay, MCF7; assay type: cell-based; conditions: MCF7, malignant
Method: as §1

[5] = test system: K562 human chronic myelogenous leukemia; assay: Flow cytometric binding and internalization assay, K562; assay type: cell-based; conditions: K562, malignant
Method: as §1

[6] = test system: HS578T Human, triple negative, highly metastatic breast carcinoma; assay: Flow cytometric binding and internalization assay, HS578T; assay type: cell-based; conditions: malignant
Method: as §1

[7] = test system: T47D human ductal breast epithelial tumor cell line; assay: Flow cytometric binding and internalization assay, T47D; assay type: cell-based; conditions: malignant
Method: as §1

[8] = test system: 22Rv1 Human prostate xenografts in mice; assay: Flow cytometric binding and internalization assay, 22Rv1; assay type: cell-based; conditions: 22Rv1, malignant
Method: as §1

[9] = test system: PBMC (unstim) human, unstimulated peripheral blood mononuclear cells; assay: Flow cytometric binding and internalization assay, PBMC; assay type: cell-based; conditions: nonmalignant
Method: as §1

[10] = test system: LNCaP lymph node metastatic lesion of human prostate adenocarcinoma; assay: Flow cytometric binding and internalization assay, LNCaP; assay type: cell-based; conditions: malignant
Method: as §1

[11] = test system: WIL-2 B lymphoblastoid cell line transformed with Epstein Barr virus; assay: Flow cytometric binding and internalization assay, WIL-2; assay type: cell-based, human; conditions: WIL-2, transformed cells
Method: as §1

[12] = test system: SKBR3 human breast adenocarcinoma; assay: Flow cytometric binding and internalization assay, SKBR3; assay type: cell-based; conditions: SKBR3, malignant
Method: as §1

[13] = test system: A549 human lung adenocarcinoma; assay: Flow cytometric binding and internalization assay, A549; assay type: cell-based; conditions: A549, malignant
Method: as §1

[14] = test system: A431 human epidermoid carcinoma; assay: Flow cytometric binding and internalization assay, A431; assay type: cell-based; conditions: A431, malignant
Method: as §1

[15] = test system: HCC1937 human, triple negative, primary breast carcinoma; assay: Flow cytometric binding and internalization assay, HCC1937; assay type: cell-based; conditions: HCC1937, malignant
Method: as §1

[16] = test system: human primary mammary epithelial cells; assay: Flow cytometric binding and internalization assay, mammary epithelial cells; assay type: cell-based; conditions: nonmalignant
Method: as §1

[17] = test system: human prostate cancer cell line PC-3; assay: Flow cytometric-based screening assay for internalization in PC-3 cells; assay type: cell-based
Method: In illustrating a screening process for internalization, from clones selected for further analysis from the selection process, a flow cytometric-based assay for binding and/or internalization was utilized. Typically, the assay was performed by incubating 200 nM of each clone with 5×10^5 target cells in 100 ul PBS containing 0.5% bovine serum albumin (BSA) in a 13 mm tube for 2 hours @ 37° C. A first portion of the cells was then treated with RNAse to remove any of the clone remaining bound to the surface of the cells, so as to allow detection and quantitation of internalized clone (i.e., measuring internalization). In parallel, a second portion of the cells was treated with PBS containing 0.5% BSA (lacking added RNase activity to enzymatically cleave […]), so as to allow detection and quantitation of clone remaining bound to the cell surface, as well as internalized clone (i.e., measuring binding and internalization). Following further washes with phosphate-buffered saline, the cells were fixed in 1% formaldehyde and then subjected to analysis on a flow cytometer using commercially available analysis software. In performing analyses by flow cytometry, several assay controls were used. As an assay control representing either no or background (e.g., non-specific) internalization, an RNA molecule resulting from a selection process for binding a molecule not detectably expressed on target cells was used. The assay control RNA molecule was further modified with Alexa 647, and then used for further characterization of clones from the selection process described herein. For ease of description and reference for this Example, this assay control RNA molecule is referred to herein as Negative Control 1 (see, e.g., Table 5). As an additional assay control that represents either no or background internalization, used was an RNA molecule from the starting library which was chosen from the library prior to beginning a selection method described herein, and that was further modified with Alexa 647. This assay control RNA molecule is referred to herein as Negative Control 2 (see, e.g., Tables 5, 7, and 8). Additionally, fluorescence of unstained cells was measured, as a control, to quantitate any background fluorescent properties of the cells themselves as encountered in analyses by flow cytometry (“Unstained”), as opposed to fluorescent signal mediated by the RNA molecules further modified to include Alexa 647. Shown in Table 5 are the results of analyses by flow cytometry in which measured and quantitated was the ability of clones, selected on the basis of sequence convergence, to internalize into target cells represented by human prostate cancer cell line PC-3. The units of fluorescence in Table 5 represent mean fluorescence (“Mean”). The fold increase (determined by dividing the mean fluorescence of a clone by the mean fluorescence of unstained cells) is an indicator of the ability of a clone, or a clone which has been further modified to include an effector moiety, to internalize into the target cells (Table 5; “Fold Increase”).
The truncations, illustrated in Table 6, were each further modified with a detectable moiety, Alexa 647, and analyzed by a flow cytometric-based screening assay for internalization using the methods outlined in Example 2, to determine minimal sequences that maintain the full ability to internalize into human prostate cancer cells. Shown in Table 7 are the results of analyses by flow cytometry in which measured and quantitated was the ability of each truncation to internalize into target cells represented by human prostate cancer cell line PC-3. The units of fluorescence in Table 7 represent mean fluorescence intensity (“Mean”). […]

[18] = Table 7, truncations modified with Alexa 647, PC-3

B1: GGGAGGACGAUGCGGUACUUUCGGGCUUUCGGCAACAUCAGCCCCUCAGGACGCAAUUUCUCCUACUGGGAUAGGUGGAUUAU (nucleic acid)
chain: rGrGrGrArGrGrAfCrGrAfUrGfCrGrGfUrAfCfUfUfUfCrGrGrGfCfUfUfUfCrGrGfCrArAfCrAfUfCrArGfCfCfCfCfUfCrArGrGrAfCrGfCrArAfUfUfUfCfUfCfCfUrAfCfUrGrGrGrAfUrArGrGfUrGrGrAfUfUrAfU
modifications: Alexa 647 label via hybridized DNA oligo, further chemistry not fully specified
notes: tested hybridized to Alexa647 DNA oligo
For B1, which Fold increase [1] is on record?
The Fold increase was 6.1.

What about the Fold increase [2] of the same molecule?
The Fold increase was 2.6.

And the Fold increase [3]?
The Fold increase was 2.1.

And the Fold increase [4]?
The Fold increase was 31.0.

What about the Fold increase [5] of the same molecule?
The Fold increase was 23.2.

And the Fold increase [6]?
The Fold increase was 9.8.

What about the Fold increase [7] of the same molecule?
Its Fold increase is 25.8.

And the Fold increase [8]?
Its Fold increase is 14.8.

What about the Fold increase [9] of the same molecule?
The Fold increase was 2.4.

What about the Fold increase [10] of the same molecule?
The Fold increase was 6.1.

What about the Fold increase [11] of the same molecule?
The Fold increase was 20.6.

And the Fold increase [12]?
The Fold increase was 14.3.

What about the Fold increase [13] of the same molecule?
The Fold increase was 3.7.

What about the Fold increase [14] of the same molecule?
Its Fold increase is 6.9.

What about the Fold increase [15] of the same molecule?
The Fold increase was 11.8.

What about the Fold increase [16] of the same molecule?
The Fold increase was 5.7.

What about the “internalization into cells (conclusion from Table 5)” value ([17]; PC-3, in words) of the same molecule?
The value was “mediate internalization into cells”.

What about the “Fold Increase (mean fluorescence of clone / unstained cells)” value ([17]; Table 5, 200 nM Alexa 647-modified clone, 2 hours @ 37° C., PC-3) of the same molecule?
Its value is 8.3.

And the “Mean (mean fluorescence)” value ([17]; Table 5, 200 nM Alexa 647-modified clone, 2 hours @ 37° C., flow cytometry, PC-3)?
The value was 665.

What about the “Fold increase (mean fluorescence intensity / unstained cells)” value [17, 18] of the same molecule?
The value was 11.3.

What about the “Mean (mean fluorescence intensity)” value [17, 18] of the same molecule?
The value was 907.

And the Fold increase ([17]; Table 9, PC3, malignant)?
The Fold increase was 9.4.
